Test: soluble on expression in E. coli; label from the status in PepcDB or PDB records

| Sequence | soluble on expression in E. coli |
| --- | --- |
| MAHHHHHHMVGIKYRKNFCDKMLRRTQQRAISQYKFGQPSLTRAFGPVPRERQVAQAGKFMSTKLPNGVRVVSHDLDGAHSVVGVYVEAGPKYDPLGCPGLSHVMRYAIQTSNMDSSLFQVDRTMRSTGNAYGHGEICKRYIHWKTEGRRDMWEKPFAMIATGVVAPRFHESDLERFRDTMDNQREELRWQNPREYCVDALETVAFFKEPLASPRMVPPESNDRCNQKVLLDHWAAYFQPGNITVAAVNIPHDALLAAYTSLPYPHSAEAPHHARSRPPTLSHASESAQFYPGRQYIVYEDRAKNMGTVPDMKEEVIAALGAPTFGRDEDVKKYATALVAREVYQASIESVMPAALTTSHGVQSFYRPYSSAGLIGITIRGAPKEIAGFLDAARGCFPIKVKDDEVAAGRARAAMAFTRNHLDMVRDYCDFIATLSVTPQQLMEAIGAVSAGEVDAALRTLSAVPPAVFVTGSTFTFPKVPSLKK | not soluble |
| MSLTNQAYPMALVSQDSLDSYIRSVNGYPMLSADEERELAERLHYKGDIDAAKGLILSHLRFVVHVARGYSGYGLPMADLVQEGNIGLMKAVKRFNPEMGVRLVSFAVHWIKAEIHEYVLRNWRIVKIATTKAQRKLFFNLRKSKKRLGWFNNGEVETVARELGVEPAEVREMESRLAAQDAAFEMSAEDDENGMAYTAPVLYLEDKHSDLADNLEAENWEAHTTQRLSMALASLDERSQHIVRARWLDDDNKTTLQDLAEMYGVSAERIRQLEKNAMRKLKEAVGEEGHHHHHH | soluble |
| MEAAHFFEGTEKLLEVWFSRQQPDANQGSGDLRTIPRSEWDILLKDVQCSIISVTKTDKQEAYVLSEASMFVSKRRFILKTCGTTLLLKALVPLLKLARDYSGFDSIQSFFYSRKNFMKPSHQGYPHRNFQEEIEFLNAIFPNGAAYCMGRMNSDCWYLYTLDFPESRVISQPDQTLEILMSELDPAVMDQFYMKDGVTAKDVTRESGIRDLIPGSVIDATMFNPCGYSMNGMKSDGTYWTIHITPEPEFSYVSFETNLSQTSYDDLIRKVVEVFKPGKFVTTLFVNQSSKCRTVLASPQKIEGFKRLDCQSAMFNDYNFVFTSFAKKQQQQQSHICRSQMVTSQQTSSVVRQT | soluble |
| MGSDKIHHHHHHMAGVTAPLLGLQKKSLREQALSALRTAITSGELEPGRHLVETELSDMLQISRGTLREALRQLEQEGLLSAGPRGRLSVRHLDAKEIRDIYSVRAALESLAARTLCELPDRQHVIGSLRAAIGAMDAAAKGSLEDRIESDLEFHRTLCRLTGNETLLHSWESLEGSIRMSIMFAGLEKGVSNMSVDRHHDIVAAIETGDGSLARKTIREHMDTAADNLVA | not soluble |
| EDICFLLADGRVYVAANQSFEPELLLSSSADSRLYVTDRGLFICAENRIYFIEKGRKTTQFPIADVLGVGAMNESNTAYIALGEEGLASLLLAEGSTAEAMPVAFDGPGDNDFYEMRFSHGRLYAASGLWGTNLMGHAGMVKLYDGNRWTNFDKKTVQEQLGGGFSFNDAIDIAVSNGDPDHFFVGTWGNGLFEFKDGKAIARYSGNETAIAECNPGDARVKAIAFDNKGNLWGTLGAVGKNIFMYDPQSSTWHSFSYPDVANLASFGNMIILPNGDKWVNILHRSGGSTRKGVLIFNDRGTPETTSDDSHLYVEQFVNRLGAAIGHKTIYAMAVDHNGSVWMGSDIGIFGVYNAAGVLSSTSTPIAVRPVGGEEPNLYYVLDKVTVTDIVVDKLNHKWVATQGTGLYLLSEDCSKILAQFTVENSPLLSNNILSLALNDDNGLLYIGTADGLMTFQTGTGSGSASELDGVYVYPNPLRPEYPDGVTIAGLQAGCSVKITDTTGRLLYQTESVTTEVKWNARGADGNRVASGVYAVAVYDPVSKKSKLIRFAVIR | not soluble |
| MSLKLVENLALKYYDKVVDLRHQIHMHPELEFEEENTAHLVCKILDEFGIKYQKNIAKTGILAIIEGKKKSQKKPKCVLLRADMDALPVQEKTNLSYASKIDGKMHACGHDGHTAGLLGAALILNELKDEFCGTIKFMFQPAEEGSGGAKPMIESGVLENPYVDAVFGCHLWGPLLENTAQIVSGEMMAGTDIFDLEFIGRGGHGAHPHTCIDPIIMTTQFVNNIQSVISRRLAPYEAGVITVGQICAGTTYNVIPTNAYLKGTVRFLNDKTQDILKSSLEEVAAATAKSNGGDYKLKYTKEFPPLINDEKAVLIARKAFAKVLGEENIIVSSKPDMGAEDFAFLTRERMGAYVFVGISKDLNHPALHHSSTFCWDDENLKVLMQGDVMMALEFLNEGGSHHHHHH | soluble |
| MELKEGDEILNVAGPLGNPAPMEKFGKILAIGAYVGIAEVYPIAKAWQEIGNDVTTLHVTFEPMVILKDYFEKAVSRHIVEPVKIDQEKSFQENTKNVTKALTAKVKELLDNENWDLVFMVGPPGDQKAVFEVVKKYGIPMKVDLHPIMLEHHHHHH | not soluble |
| MSLKIIVVGCGKIGYTIAKVLSEKKDIDVTVVDNNPNIFDKMVEPIDVIFISGNGANEKTLIEAGAKDADLIVSTTNADELNVLCCIMAERLGTKHSIARVRNPEYMLEFNKLWKDLGIDMVINPERQTAREISRILRYHAADDIVTFIGDRVELVSFKVSETPEYFVGKSVSQIFDNNMGILLAIVERENQALIPNGDLIFKESDIIWIMGRPSQIMKFFTLIKKGPKKGQEIMVIGGGKITHYLVELLNRHTTKANIKIIKKDRSKCESLYEALSSASLERRCLFIHGDGTNEELLIDEGIDTMDACVCLTDRDEENVFISLYAMRRGVKKVITKINYIHQNMAKSLGLWLGNIITPQYITAKTVIRYVDGLSGAVGRNIMTIHQIYSGDDGNVDAIEFQVNKKAKCIDTPIKKLKLKKGILIGCISRDFDIIIPSGETEIHIGDRVIIFSKNNDIRDLDDILENEGHHHHHH | soluble |
| MGSDKIHHHHHHMSIYNSIGKQYSQTRVPDIRIVNAIINLLNLPKGSVIADIGAGTGGYSVALANQGLFVYAVEPSIVMRQQAVVHPQVEWFTGYAENLALPDKSVDGVISILAIHHFSHLEKSFQEMQRIIRDGTIVLLTFDIRLAQRIWLYDYFPFLWEDALRFLPLDEQINLLQENTKRRVEAIPFLLPHDLSDLFAAAAWRRPELYLKAEVRAGISSFALANQDLVEKGLELLTADLNNGEWIRKYGEIHHLQEIDIGYRFIYTTLDK | not soluble |
| MDQTNENVKESEPPSDDGPPILSVLCSLVDEIGSLRNENLRLKTRLVPAPRNTKNVVQRMSAMLEHRGSSIFPKLRRANRSSESMEIRNGARERLSTPPRKETSNSMNTSSDVSYGRNRAPPIVRPEQSDSEIDEQIFDDDDHRSRDTTRRCDSVNVPRHQNDNSTSACTSPSSASSSRDPSETMTTSRSSFLDLLGLRRRSTHIPQPTSYSKTTALKQTNKKRRRKISGNDNDSESSGMYANMEDHCSRVPSKPPRPASYYRRDDSEDSDCLRQMRQRKTASSLNVNNYEHRHEDMYRVSRETQWQHEKDNLMAEIEEMKMRNNRLVEQLREKSQQQSKLQCQLHKAEMQVNALSRRCALSEALDRLTLDERMEKSATSWIKKIEERLRIFENQMQNAKLEAATAHQMALNSSCHEKDAHQNCLEKLESLQREHMRVIHSSLVEIGVDEINMKRRLENLPTYEALYAFTHSVVRRLNEARWAVIEKTNETSRAQIDLIVSQSSHLVSLAQLERLKIMQTLRGKRQKRPSSFHGHSVSERNIRQDLSFYLPLKLHGSRVENSRRTIKKNAIVGNDRNIEEEFLKLFSYSKDFSMELAAPPERRANTRIETMMREMNGNGRPIIRRGPSGVSNSNIMRDRVTREVPSNRRPISLVETEERRIRRNEETKRSIKFMKTNSIDHGYNAYEPPPASRTTTTTIVASTQDISNNVHSPHGTPVFTRRIIIPVKGNAYDIVPEGTTANIVPANIPQMGRVRKLERAFSAESRNTVDSLHDREEQRRERRDHVEGGVERRQSKIQRSQPVSRLKQPSVQLSKFRTIENNGANREPPSSSILRPRTLEPQTSIPRITTSPPESRIPTPSSRHGNEKRGWLERLKGIGKL | not soluble |
| MGSDKIHHHHHHMREIMSIITLPRKIYQQRDIIDNIRETLQLKEPILLVSDRNIMKLYGQRIKNALDGSDYRVIEDVRPEPEVSDIENTYRSLSGFQPKTIIAFGGGSVIDFAKSIDVKISYPDRSLEEVNPFEPLNLKADLVAIPTTSGTGSDVSFGIVITDQGRKLALGNFDLVPYVSVLDSSLVPSDPSIIRPTGVDALVHSFEALTANTSSIFTDALAEKAIETIFGILIDPMKGEEDARENMHLAATMAGISFTNSGTALAHALGHSFGSTHHVVHGTCVGLFLPYVIEFNSSDENASEKYARIARRLGYKDAISALRDLYRRIGQPLTVAEIGIPKDAYMKSLDSMVEKALADSELAFNPVIAGDEDVRSIYIKAYGD | not soluble |
| MSSHPLSISSLSPSYSHRPPGAEQHTVVAGRTSKSAREQCVQGQMVIMQPIRAFVDQHFRAFCQSVELYTISYFQMVPMNPELMHYPNQPHMMPGYPMINAYQQSYLQNPAQWTPEMLLCMQMQMQQMVPGTATNSTYMPPQSKNTVTPNATSPLSQISDRDSGNDTISPPLTSQNRYVFLLRGKKKSCAMFECLGGLYFMVQFVSRNT | not soluble |
| MGSDKIHHHHHHMKFYNRENELAELQRIQELSFEENSRLTVVTGRRRIGKTSLIMRAFEKTPTIYLFVGRKNEASLCREFITLVSQALDIYVPEEISTFKSLFRYIMEVATRQSFNLVIDEFQEFYNINKSIYSDIQDIWDQYRQKTHMNFVVSGSIYSLMEKIFHNEKEPLFGRADNIIKLSAFSLNVLKKIIKDYHPQYTNDDLLALYSFSGGVPKYVELFCDNRVLTVDGMIDFMVRDNSPFTDEGKNLLIEEFGKNYGTYFSILSAISGGYNTQTEIEALLGEKSLGGYLKRLIEDYNIVVRQRPVFSKEGSQTVRYGICDNFIHFWFNYFDRNRSLIEIKNFIGLRKLIKADYPTYSGKILEQYFKQKYAESYEFRLIGSWWEPKGNQNEIDIVAIYLDNKSAIVAEVKRQKKNFKPELFQKKVEHLENKVLAKYQINTVCLSLEDM | not soluble |
| MASTANMISQLKKLSIAEPAVAKDSHPDVNIVDLMRNYISQELSKISGVDSSLIFPALEWTNTMERGDLLIPIPRLRIKGANPKDLAVQWAEKFPCGDFLEKVEANGPFIQFFFNPQFLAKLVIPDILTRKEDYGSCKLVENKKVIIEFSSPNIAKPFHAGHLRSTIIGGFLANLYEKLGWEVIRMNYLGDWGKQFGLLAVGFERYGNEEALVKDPIHHLFDVYVRINKDIEEEGDSIPLEQSTNGKAREYFKRMEDGDEEALKIWKRFREFSIEKYIDTYARLNIKYDVYSGESQVSKESMLKAIDLFKEKGLTHEDKGAVLIDLTKFNKKLGKAIVQKSDGTTLYLTRDVGAAMDRYEKYHFDKMIYVIASQQDLHAAQFFEILKQMGFEWAKDLQHVNFGMVQGMSTRKGTVVFLDNILEETKEKMHEVMKKNENKYAQIEHPEEVADLVGISAVMIQDMQGKRINNYEFKWERMLSFEGDTGPYLQYAHSRLRSVERNASGITQEKWINADFSLLKEPAAKLLIRLLGQYPDVLRNAIKTHEPTTVVTYLFKLTHQVSSCYDVLWVAGQTEELATARLALYGAARQVLYNGMRLLGLTPVERM | soluble |
| MSVNFFSLITSSWERGLFLKSCKNNSGTDSNRFFSFSVPPNLLDNLLPPLLVRKTLSSSSSKSCGIGGIYFKSSAVNVSEDGLTASTFFSILLPKNFLGITKLFCRIFLLSCPHNYKWFIHLINPFEYENFINIE | soluble |
| DYLRQVFPHYKVQKITLNAGFTCPNRDGLKGWGGCTYCNNQTFSPAFAMKDRSVSEQLRDGIAFFARKYPHMKYLAYFQAYTNTYGEQAEIIRKYEEALNYYDVVGIIIGTRPDCMPDSLLSYLKDLSERVFVLVEYGVESTLDATLRRVNRGHLWSDSMAAIERTAKTGLPIGVHLILGLPGESREDILRHADKISALPVTTLKLHQLQIIRGTAMAKEYAESPSD | not soluble |

From the DeepSol protein solubility set
